According to paper PMC9482650, “Quantitative fragmentomics allow affinity mapping of interactomes” (Nature Communications, 2022):

T1: GRIP1_7, Q9Y3R0
T1 sequence (Q9Y3R0 999-1096, limits assumed, looked up): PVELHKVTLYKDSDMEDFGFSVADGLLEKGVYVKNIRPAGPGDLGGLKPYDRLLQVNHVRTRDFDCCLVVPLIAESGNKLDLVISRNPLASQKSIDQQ

T2: DFNB31_1, Q9P202
T2 sequence (Q9P202 135-233, limits assumed, looked up): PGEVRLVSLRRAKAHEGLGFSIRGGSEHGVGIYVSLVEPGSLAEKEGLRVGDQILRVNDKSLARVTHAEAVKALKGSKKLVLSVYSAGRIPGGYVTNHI

T3: PARD3B_1, Q8TEW8
T3 sequence (Q8TEW8 196-299, limits assumed, looked up): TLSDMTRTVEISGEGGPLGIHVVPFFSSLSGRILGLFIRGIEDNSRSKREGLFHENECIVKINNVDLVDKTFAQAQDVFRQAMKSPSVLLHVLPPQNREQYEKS

T4: TX1BP3, O14907
T4 sequence (O14907 10-122, limits assumed, looked up): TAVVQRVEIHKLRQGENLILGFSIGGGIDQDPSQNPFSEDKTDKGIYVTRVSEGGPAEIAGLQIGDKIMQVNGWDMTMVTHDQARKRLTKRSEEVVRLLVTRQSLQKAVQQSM

T5: HTRA3, P83110
T5 sequence (P83110 354-453, limits assumed, looked up): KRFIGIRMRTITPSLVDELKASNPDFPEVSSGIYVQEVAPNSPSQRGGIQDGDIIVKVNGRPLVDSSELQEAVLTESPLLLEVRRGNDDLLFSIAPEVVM

T6: LIN7C, Q9NUP9
T6 sequence (Q9NUP9 88-185, limits assumed, looked up): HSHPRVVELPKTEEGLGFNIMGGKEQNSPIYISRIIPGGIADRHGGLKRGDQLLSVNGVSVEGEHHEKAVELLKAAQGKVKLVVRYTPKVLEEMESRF

T7: LNX2_3, Q8N448
T7 sequence (Q8N448 463-564, limits assumed, looked up): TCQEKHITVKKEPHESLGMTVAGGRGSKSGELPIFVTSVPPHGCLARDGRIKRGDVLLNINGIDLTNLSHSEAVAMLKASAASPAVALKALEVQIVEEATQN

T8: PDZD2_2, O15018
T8 sequence (O15018 329-429, limits assumed, looked up): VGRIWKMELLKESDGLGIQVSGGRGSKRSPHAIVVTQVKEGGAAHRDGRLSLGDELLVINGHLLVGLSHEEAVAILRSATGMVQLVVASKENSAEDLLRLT

T9: MPDZ_5, O75970
T9 sequence (O75970 695-796, limits assumed, looked up): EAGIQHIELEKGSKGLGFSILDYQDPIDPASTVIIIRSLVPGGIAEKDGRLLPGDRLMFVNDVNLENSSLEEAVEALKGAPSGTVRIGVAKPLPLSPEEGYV

T10: SNTA1, Q13424
T10 sequence (Q13424 82-180, limits assumed, looked up): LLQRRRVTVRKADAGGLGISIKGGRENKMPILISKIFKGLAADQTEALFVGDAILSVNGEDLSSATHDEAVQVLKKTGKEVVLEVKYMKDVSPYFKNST

T11: ARHGAP21, Q5T5U3
T11 sequence (Q5T5U3 45-169, limits assumed, looked up): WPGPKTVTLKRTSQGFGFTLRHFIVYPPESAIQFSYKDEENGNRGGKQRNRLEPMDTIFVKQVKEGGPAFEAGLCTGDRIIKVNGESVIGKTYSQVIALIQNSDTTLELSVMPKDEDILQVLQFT


Assays:
Assay in all cases: holdup assay
Set-up in all cases: key: below the threshold = too weak to quantify, mostly under pKd 3.1 to 4
Conditions in all cases: plain residues with an end cap or a label only (N-terminal biotin on a linker: ado-ado)
[1] = biological target: T1, GRIP1_7, Q9Y3R0
[2] = biological target: FRMPD2_1, Q68DX3
FRMPD2_1, Q68DX3, sequence (Q68DX3 770-861): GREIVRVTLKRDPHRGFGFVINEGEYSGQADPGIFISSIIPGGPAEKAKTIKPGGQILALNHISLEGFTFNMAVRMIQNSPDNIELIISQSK

[3] = biological target: T2, DFNB31_1, Q9P202
[4] = biological target: FRMPD3, Q5JV73
FRMPD3, Q5JV73, sequence (Q5JV73 12-100): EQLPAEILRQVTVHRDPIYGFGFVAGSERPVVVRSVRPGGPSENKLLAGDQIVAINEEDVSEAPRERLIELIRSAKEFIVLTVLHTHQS

[5] = biological target: LAP2, Q96RT1
LAP2, Q96RT1, sequence (Q96RT1 other isoform, or with tags, fused parts or gaps): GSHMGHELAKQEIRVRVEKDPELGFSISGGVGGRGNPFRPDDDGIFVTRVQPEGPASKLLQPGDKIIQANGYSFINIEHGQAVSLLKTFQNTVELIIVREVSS

[6] = biological target: T3, PARD3B_1, Q8TEW8
[7] = biological target: Inadl_1, Q8NI35
Inadl_1, Q8NI35, sequence (Q8NI35 113-229): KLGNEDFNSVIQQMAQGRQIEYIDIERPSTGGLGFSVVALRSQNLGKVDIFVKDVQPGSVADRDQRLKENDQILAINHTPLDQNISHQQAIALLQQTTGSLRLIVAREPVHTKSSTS

[8] = biological target: GRID2IP_2, A4D2P6
GRID2IP_2, A4D2P6, sequence (A4D2P6 272-370): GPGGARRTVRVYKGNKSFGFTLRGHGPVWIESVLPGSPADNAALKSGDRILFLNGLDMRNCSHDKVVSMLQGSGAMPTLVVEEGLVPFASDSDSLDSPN

[9] = biological target: T4, TX1BP3, O14907
[10] = biological target: TJP1_2, Q07157
TJP1_2, Q07157, sequence (Q07157 181-274): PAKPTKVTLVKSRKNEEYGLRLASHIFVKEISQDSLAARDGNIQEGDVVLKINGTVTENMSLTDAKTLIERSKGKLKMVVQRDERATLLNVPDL

[11] = biological target: NHERF2_2, Q15599
NHERF2_2, Q15599, sequence (Q15599 142-238): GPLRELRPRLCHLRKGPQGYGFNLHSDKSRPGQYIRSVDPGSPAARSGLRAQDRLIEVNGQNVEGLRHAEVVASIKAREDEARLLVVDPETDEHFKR

[12] = biological target: T5, HTRA3, P83110
[13] = biological target: GIPC2, Q8TF65
GIPC2, Q8TF65, sequence (Q8TF65 112-203): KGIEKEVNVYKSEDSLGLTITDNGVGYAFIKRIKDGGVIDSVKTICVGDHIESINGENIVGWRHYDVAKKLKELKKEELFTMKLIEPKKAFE

[14] = biological target: T6, LIN7C, Q9NUP9
[15] = biological target: SCRIB_2, Q14160
SCRIB_2, Q14160, sequence (Q14160 857-960): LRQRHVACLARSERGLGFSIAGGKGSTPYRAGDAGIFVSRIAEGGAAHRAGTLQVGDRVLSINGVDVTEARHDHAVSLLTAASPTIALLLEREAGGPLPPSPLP

[16] = biological target: T7, LNX2_3, Q8N448
[17] = biological target: GOPC, Q9HD26
[18] = biological target: Inadl_5, Q8NI35
Inadl_5, Q8NI35, sequence (Q8NI35 673-780): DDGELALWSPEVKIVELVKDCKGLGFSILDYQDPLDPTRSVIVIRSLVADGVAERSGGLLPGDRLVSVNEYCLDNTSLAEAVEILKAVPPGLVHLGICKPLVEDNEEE

[19] = biological target: Inadl_3, Q8NI35
Inadl_3, Q8NI35, sequence (Q8NI35 359-469): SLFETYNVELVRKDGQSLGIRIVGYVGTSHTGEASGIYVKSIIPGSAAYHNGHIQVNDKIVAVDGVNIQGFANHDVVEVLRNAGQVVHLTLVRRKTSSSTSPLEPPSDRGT

[20] = biological target: DLG2_3, Q15700
[21] = biological target: T8, PDZD2_2, O15018
[22] = biological target: GORASP2, Q9H8Y8
[23] = biological target: T9, MPDZ_5, O75970
[24] = biological target: T10, SNTA1, Q13424
[25] = biological target: T11, ARHGAP21, Q5T5U3

| pKd [1] | pKd [2] | pKd [3] | pKd [4] | pKd [5] | pKd [6] | pKd [7] | pKd [8] | pKd [9] | pKd [10] | pKd [11] | pKd [12] | pKd [13] | pKd [14] | pKd [15] | pKd [16] | pKd [17] | pKd [18] | pKd [19] | pKd [20] | Binder | further results |
| --- | --- | --- | --- | --- | --- | --- | --- | --- | --- | --- | --- | --- | --- | --- | --- | --- | --- | --- | --- | --- | --- |
| below the threshold | below the threshold | below the threshold | below the threshold | below the threshold | 3.65 | below the threshold | below the threshold | 5.05 | below the threshold | below the threshold | below the threshold | below the threshold | 4.09 | below the threshold | below the threshold | below the threshold | below the threshold | below the threshold | below the threshold | SKSNFGSEPL [KIF17, Q9P2E2] | pKd [21]: below the threshold; pKd [22]: below the threshold; pKd [23]: below the threshold; pKd [24]: below the threshold; pKd [25]: 3.56 |
| 3.51 | below the threshold | 3.9 | below the threshold | 4.22 | below the threshold | below the threshold | 4.17 | 4.78 | below the threshold | 3.89 | below the threshold | 3.78 | below the threshold | 4.28 | below the threshold | 4.04 | below the threshold | 4.11 | 3.68 | PDGQCTVTEV [RNF146, Q9NTX7] | pKd [21]: 4.79; pKd [22]: 4.17; pKd [23]: below the threshold; pKd [24]: 4.23; pKd [25]: below the threshold |
| below the threshold | below the threshold | 3.77 | below the threshold | 3.66 | below the threshold | below the threshold | 4.2 | 4.53 | below the threshold | below the threshold | below the threshold | below the threshold | below the threshold | below the threshold | below the threshold | 4.07 | below the threshold | below the threshold | 5 | SAKVRTVTSV [RASL11B, Q9BPW5] | pKd [21]: 4.25; pKd [22]: 4.56; pKd [23]: below the threshold; pKd [24]: below the threshold; pKd [25]: below the threshold |
| 3.71 | 3.85 | below the threshold | 3.55 | 4.51 | below the threshold | below the threshold | 3.89 | 3.87 | 4.1 | below the threshold | 5.7 | below the threshold | below the threshold | below the threshold | below the threshold | below the threshold | 4.47 | below the threshold | 3.7 | YYKRPVQEWV [MMP24, Q9Y5R2] | pKd [21]: 5.65; pKd [22]: 5.44; pKd [23]: 4.03; pKd [24]: below the threshold; pKd [25]: below the threshold |
| below the threshold | below the threshold | below the threshold | below the threshold | below the threshold | below the threshold | below the threshold | below the threshold | below the threshold | below the threshold | 4.27 | below the threshold | below the threshold | below the threshold | below the threshold | below the threshold | below the threshold | below the threshold | below the threshold | below the threshold | DTTVPESEDL [MYOZ2, Q9NPC6] | pKd [21]: below the threshold; pKd [22]: below the threshold; pKd [23]: below the threshold; pKd [24]: below the threshold; pKd [25]: below the threshold |
| below the threshold | below the threshold | below the threshold | below the threshold | below the threshold | below the threshold | below the threshold | below the threshold | 3.87 | below the threshold | below the threshold | below the threshold | below the threshold | below the threshold | below the threshold | below the threshold | below the threshold | below the threshold | below the threshold | 3.67 | NHSSSPETTA [TRMT13, Q9NUP7] | pKd [21]: below the threshold; pKd [22]: below the threshold; pKd [23]: below the threshold; pKd [24]: below the threshold; pKd [25]: below the threshold |
